Here are results for one molecule from article PMC11665464, “The molecular chaperone ALYREF promotes R-loop resolution and maintains genome stability”.

This data set concerns the target ALYREF-ΔRRM (human, UniProt Q86V81 1-257, del108-179). Briefly: EMSA; 35 mM Tris-HCl pH 7.5, 1 mM DTT, 100 ug/ml BSA, 1 mM MgCl2, 100 mM KCl, 10 min at 30 C; 5 nM nucleic acid; gel at 4 C. To be noted: protein: recombinant; tags: His6; label: 32P; three-strand 5' RNA flap; RNA and DNA2 share the complement on DNA1. (In general: In EMSA bound probe runs differently from free probe, usually more slowly.)

B1: 5' RNA-DNA flap (R-Flap, migratable R-loop mimic) (mixed)
DNA 1: ACGCTGCCGAATTCTACCAGTGCCTTGCTAGGACATCTTTGCCCACCTGGTGGTGGGACC
DNA 2: GGTCCCACCACCAGGTGGGCAAAGATGTCCCAGCAAGGCACTGGTAGAATTCGGCAGCGT
RNA: GGUCCCACCACCAGGUGGGCAAAGAUGUCC
Consider B1, for which the binding result was “binds”.
